This note sets out measurements from patent US20010029293A1.

The target in experiment [1] is LFA-1 (CD11a/CD18) on cells (human) (UniProt P20701). The experiment can be described thus: JY cell adhesion to coated shICAM-R, mAb 10 µg/ml.
Experiment [2] shares this target. Description: cell adhesion to coated shICAM-R, peptide 1-2 mg/ml.
Experiment [3] has the same target. The experiment can be described thus: neutrophil adhesion to coated ICAM-R/Ig, mAb 15 µg/ml.

Chain of LFA-1 (CD11a/CD18) on cells (human) (P20701 26-1170, chain 1 of 2): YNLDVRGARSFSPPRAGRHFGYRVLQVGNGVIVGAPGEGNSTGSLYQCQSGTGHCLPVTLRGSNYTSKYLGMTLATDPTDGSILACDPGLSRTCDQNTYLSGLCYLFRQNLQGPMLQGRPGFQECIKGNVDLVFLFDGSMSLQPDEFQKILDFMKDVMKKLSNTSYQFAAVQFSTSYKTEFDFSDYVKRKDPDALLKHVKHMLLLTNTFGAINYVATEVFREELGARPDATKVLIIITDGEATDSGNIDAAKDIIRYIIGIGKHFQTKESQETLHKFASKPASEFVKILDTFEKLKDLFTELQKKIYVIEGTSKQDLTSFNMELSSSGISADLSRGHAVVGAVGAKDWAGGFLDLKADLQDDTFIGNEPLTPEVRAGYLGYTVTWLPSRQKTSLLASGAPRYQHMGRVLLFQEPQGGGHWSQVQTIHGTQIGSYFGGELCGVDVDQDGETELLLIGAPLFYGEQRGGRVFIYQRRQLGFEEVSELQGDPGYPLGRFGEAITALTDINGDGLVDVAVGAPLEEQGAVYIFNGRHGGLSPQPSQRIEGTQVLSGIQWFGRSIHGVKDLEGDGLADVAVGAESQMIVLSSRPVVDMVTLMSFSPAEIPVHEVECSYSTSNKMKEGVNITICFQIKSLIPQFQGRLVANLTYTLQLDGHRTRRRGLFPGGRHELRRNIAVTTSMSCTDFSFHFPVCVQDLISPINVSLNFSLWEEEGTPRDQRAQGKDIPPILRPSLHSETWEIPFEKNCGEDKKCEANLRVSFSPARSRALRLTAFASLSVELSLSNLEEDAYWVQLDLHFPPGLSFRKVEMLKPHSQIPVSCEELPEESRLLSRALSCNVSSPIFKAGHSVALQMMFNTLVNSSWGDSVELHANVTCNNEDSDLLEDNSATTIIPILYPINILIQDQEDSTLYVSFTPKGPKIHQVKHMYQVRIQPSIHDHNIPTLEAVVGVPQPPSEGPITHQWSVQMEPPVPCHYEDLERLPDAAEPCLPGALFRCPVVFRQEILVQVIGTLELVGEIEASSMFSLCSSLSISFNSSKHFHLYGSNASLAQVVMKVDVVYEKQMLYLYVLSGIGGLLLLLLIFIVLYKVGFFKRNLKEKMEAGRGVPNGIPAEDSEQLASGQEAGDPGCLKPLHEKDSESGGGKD
Chain of LFA-1 (CD11a/CD18) on cells (human) (P05107 23-769, chain 2 of 2, further chain): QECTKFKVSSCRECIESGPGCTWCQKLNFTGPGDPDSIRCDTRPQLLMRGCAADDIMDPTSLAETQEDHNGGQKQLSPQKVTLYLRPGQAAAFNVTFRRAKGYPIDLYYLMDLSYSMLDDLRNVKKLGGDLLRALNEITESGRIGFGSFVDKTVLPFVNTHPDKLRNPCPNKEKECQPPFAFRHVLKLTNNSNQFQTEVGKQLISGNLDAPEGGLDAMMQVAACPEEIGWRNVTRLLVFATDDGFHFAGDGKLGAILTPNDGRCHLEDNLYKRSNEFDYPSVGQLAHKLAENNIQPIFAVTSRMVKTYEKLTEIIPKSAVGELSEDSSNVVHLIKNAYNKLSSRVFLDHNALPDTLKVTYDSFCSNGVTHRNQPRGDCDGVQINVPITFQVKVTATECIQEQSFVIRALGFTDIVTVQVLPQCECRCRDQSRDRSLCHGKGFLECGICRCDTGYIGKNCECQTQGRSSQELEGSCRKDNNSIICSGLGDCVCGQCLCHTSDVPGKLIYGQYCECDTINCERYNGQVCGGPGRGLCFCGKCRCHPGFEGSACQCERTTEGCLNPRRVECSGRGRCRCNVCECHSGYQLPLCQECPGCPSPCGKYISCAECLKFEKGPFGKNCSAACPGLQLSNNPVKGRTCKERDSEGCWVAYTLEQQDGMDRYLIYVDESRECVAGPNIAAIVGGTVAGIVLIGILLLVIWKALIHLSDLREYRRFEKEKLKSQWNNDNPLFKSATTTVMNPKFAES

With 60.3 (antibody), in experiment [1], the Inhibition (%) of CD18-dependent JY cell binding came out at 100%.
In the case of ICAM-R peptide 72-76 (NGSQI), the % Inhibition CD18-Dependent Binding (SKW3) in experiment [2] came out at 26%.
On to TS1/22 (antibody), for which the % inhibition of neutrophil binding to ICAM-R in experiment [3] worked out at 50%.
